Measured values: the RNAGym collection of RNA variant scans (doi:10.1073/pnas.2313332121)

B1: TPR t1 (parent)
chain: GACCAAUCUGCCCUCAGAGCUCGAGAACAUCUUCGGAUGCAGAGGAGGCAGGCUUCGGUGGCGCGAUAGCGCCAACGUCCUCAACCUCCAAUGCAUCCCACCACAUGAUGAUGCCUGAAGAGCCUUGGUUUUUUG

Variants of: B1
Assay: polymerase ribozyme fitness, log enrichment relative to wild type (log ratio); higher = more active; in vitro selection for triplet polymerase activity
Method in brief: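 One round of in vitro selection, in triplicate, was applied to PCR-built, transcribed mutant libraries of each subunit of a heterodimeric triplet polymerase ribozyme. The steps were annealing with a biotinylated primer, partner subunit and triplets, incubation frozen at −7 °C, gel excision of extended constructs, streptavidin-bead capture and RT-PCR. Fitness is the logarithm, base 2, of genotype enrichment over wild-type enrichment from inverse-variance-weighted replicate averages of Illumina-sequenced inputs and outputs, keeping genotypes with ≥10 input reads and ≥1 read per output.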

Row | Variant | polymerase ribozyme fitness (log ratio)
1 | GACCAAUCUGCCCUCAGAGCUCGAGAACAUCUUCGGAUGCAGAGGAUGCAGGCUUCGGUGGCGCGAUAGCGCCAACGUCCUCAACCUCCAAUGCAUCCCACCAUAUGAUGAUGCCUGAAGAGCCUUGGUUUUUUG | -1.55
2 | GACCAAUCUGCCCUCAGAGCUCGAGAACAUCUUCGGAUGCAGAGGAUGCAGGCUUCGGUGGCGCGAUACCGCCAACGUCCUCAACCUCCAAUGCAUCCCACCACAUGAUGAUGCCUGAAGAGCCUUGGUUUUUUG | -3.62
3 | GACCAAUCUGCCCUCAGAGCUCGAGAACAUCUUCGGAUGCAGAGGAUGCAGGCUUCGGUGGCGCGAUAGCGCCAACGUCCUCAACCUCCAAUGCAUCCCACCACGUGAUGAUGCCUGAAGAGCCUUGGUUUUUUG | -3.69
4 | GACCAAUCUGCCCUCAGAGCUCGAGAACAUCUUCGGAUGCAGAGGAUGCAGGCUUCGGUGGCGCGAUAGCGCAAACGCCCUCAACCUUCAAUGCGUCCCACCACAUGAUGAUGCCUGAAGAGCCUUGGUUUUUUG | -4.73
5 | GACCAAUCUGCCCUCAGAGCUCGAGAACAUCUUCGGAUGCAGAGGAUGCAGACUUCGGUGGCGCGAUAGCGCCAACGUCCUCCACCUCCAAUGCAUCCCACCACAUGAUGAUGCCUGAAGAGCCUUGGUUUUUUG | -2.36
6 | GACCAAUCUGCCCUCAGAGCUCGAGAACAUCUUCGGAUGCAGAGGACGCAGGCGUCGCUGGCGCGAUAUCGCCAACGUCCUCAACCUCCAAUGCAUCCCACCACAUGAUGAUGCCUGAAGAGGCUUGGUUUUUUG | 0.703
7 | GACCAAUCUGCCCUCAGAGCUCGAGAACAUCUUCGGAUGCAGAGGACGCAGGCUUCGGUGGCGCGAUAGCGCCAACGUCCUCAACCUCCAAUGCAUCCCACCACAUGAUGAUGCCUGAAGAGCCGUGGUUUUUUG | -3.03
8 | GACCAAUCUGCCCUCAGAGCUCGAGAACAUCUUCGGAUGCAGAGGAUGCAGGCUUGGGUGGCGCGAUAGCGCCAACGUCCUCAACCUCCAAUGCAUCCCACCACAUGAUGAUGCCUGAAGAGCCUUGGUUUUUUG | -3.09
9 | GACCAAUCUGCCCUCAGAGCUCGAGAACAUCUUCGGAUGCAGAGGAUGCAGGCUUUGGUGGCGCGAUAGCGCCAACGUCCUCAACCUCCAAUGCAUCCCACCACAUGAUGAUGCCUGAAGAGCCUUGGUUUUUUG | -1.38
10 | GACCAAUCUGCCCUCAGAGCUCGAGAACAUCUUCGGAUGCAGAGGAUGCAGGCUUCGGUGGCGCGAUAGUGCCAACGUCCUCAACCUCCAAUGCAUCCCACCACAUGAUGAUGCCUGAAGAGCCUUGGUUUUUUG | -1.87
11 | GACCAAUCUGCCCUCAGAGCUCGAGAACAUCUUCGGAUGCAGAGGAUGCAGGCUUCGGUGGCGCGAUAGCGCCAACGUCCUCAACCUCCAAUGCAUCCCACCACAUGAUGAUGCCUGAAUAGCCUUGGUUUUUUG | -0.0894
12 | GACCAAUCUGCCCUCAGAGCUCGAGAACAUCUUCGGAUGCAGAGGAUGCAGGCUUCGGUGGCACGAUAGCGCCAACGUCCUCAACCUCCAAUGCAUCCCACCACAUGAUGAUGCCAGAAGAGCCUUGGUUUUUUG | -4.47
13 | GACCAAUCUGCCCUCAGAGCUCGAGAACAUCUUCGGAUGCAGAGGAUGCAGACUUCGGUGGCGCGAUAGCGCCAACGUCCUCAACCUCCAAUGCAUCCCACCACAUGAUGAUGCCUGAAGAGCCUUGGUUUUUUG | -2.71
14 | GACCAAUCUGCCCUCAGAGCUCGAGAACAUCUUCGGAUGCAGAGGAUGCAAGCUUCGGUGGCGCGAUAGCGCCAACGUCCUCAACCUCCAAUGCAUCCCACCACAUGAUGAUGCCUGAAGGGCCUUGUUUUUUUG | -3.97
15 | GACCAAUCUGCCCUCAGAGCUCGAGAACAUCUUCGGAUGCAGAGGAUGCAGGUUUCGGUGGCGCGAUAGCGCCAACGUCCUCAACCUCCAAUGCAUCCCACCACAUGAUGGUGCCUGAAGAGCCUUGGUUUUUUG | -1.54
16 | GACCAAUCUGCCCUCAGAGCUCGAGAACAUCUUCGGAUGCAGAGGAUGCAGGCUUUGGUGGCGCGAUAGCGCCAACGUCCUCAACCUCCAAUGCAUCCCACCACAUGAUGAUUCCUGAAGAGCCUUGGUUUUUUG | -4.43
17 | GACCAAUCUGCCCUCAGAGCUCGAGAACAUCUUCGGAUGCAGAGGAUGCAGGCUUCGGUGGCGCGAUAGCGCCAACGUCCUCAACCUCCAAUGUAUCCCACCACAGGAUGAUGCCUUAAAAGCCUUGGUUUUUUG | -5.71
18 | GACCAAUCUGCCCUCAGAGCUCGAGAACAUCUUCGGAUGCAGAGGAUGCAGGCUUCGGUGGCGCGAUAGCGCCAACGUCCUCAACCUCCAAUGCAUCCCAUCACAUGAUGAUGUCUGUAGAGCCUUGGUUUUUUG | -5.66
19 | GACCAAUCUGCCCUCAGAGCUCGAGAACAUCUUCGGAUGCAGAGGAUGCAGGCUUCGGUGGCGCGAUAGCGCCAACGUCCUCAACCUCCAAUGCAUCCCACCACAUGAUGAUGCCUGAAGCGACUUGAUUUUUUG | -2.3
20 | GACCAAUCUGCCCUCAGAGCUCGAGAACAUCUUCGGAUGCAGAGGAUGCAGGCUUCGGUGGCGCGAUAGCGUCAACGUCCUCAACCCCCAAUGCAUCGCACCACAUGAUGAAGCCUGAAGAGCCUUGGUUUUUUG | -7.3
21 | GACCAAUCUGCCCUCAGAGCUCGAGAACAUCUUCGGAUGCAGAGGAUGCAGGCUUCGGUGGCGCGAUAGCGACAAAGUAGUCAACCUCCAAUGGAUCCCCCCACAUGAUGAUGCCGGAAGAGCUUUGGAUUUUUG | -7.94

Row | Variant | polymerase ribozyme fitness (log ratio)
22 | GACCAAUCUGCCCUCAGAGCUCGAGAACAUCUUCGGAUGCAGAGGAUGCAGGCUUCAGUGGCGCGAUAGCGCAAACGUCCUCAAGCUCCAAUGCAUCCCACCACAAGAUGAUGCCUGAAGAGCCUUGGUUUUAUG | -5.19
23 | GACCAAUCUGCCCUCAGAGCUCGAGAACAUCUUCGGAUGCAGAGGAUACAGGCUUCGGUGGCGCGAUAGCGCCAACGUCCUCAACCUCCAAUGCAUCCCACCACAUGAUGAUGCCUGAAGAGCCUUGGUUUUUUG | 0.823
24 | GACCAAUCUGCCCUCAGAGCUCGAGAACAUCUUCGGAUGCAGAGGAUACAGGCUUCGGUGGCCCGAUAGCGCCAACGUCCUCAACCUCCAAUGCAUCCCACCACAUGAUGAUGCCUGAGGAGCCUUGGUCUUUUG | -1
25 | GACCAAUCUGCCCUCAGAGCUCGAGAACAUCUUCGGAUGCAGAGGAUUCAGGCUUAGGUGGCGCGAUAGCGCAAACGUCCUCAACCUCCAAUGCAUCCCACCACAUGAUGAUGCCUGGAGAGCCUUGGUUUUUUG | -3.88
26 | GACCAAUCUGCCCUCAGAGCUCGAGAACAUCUUCGGAUGCAGAGGAUGCAGGCUUCGGUGGCGCGAUAGCUCCAACGUCCUCAACCUCCAAUGCAUCCCACCACAUGAUGAUGCCUGAUGAGACUUGGUUUUUUG | -2.79
27 | GACCAAUCUGCCCUCAGAGCUCGAGAACAUCUUCGGAUGCAGAGGAUGCAGGCUUCUGUGGCGCGAUAGCGCCAACGUCCUCAACCUCCAAUUCAUCCCACCACAUGAUGAUGCCUGAAGAGCCUUGGUUUUUUG | -3.51
28 | GACCAAUCUGCCCUCAGAGCUCGAGAACAUCUUCGGAUGCAGAGGAUGCAGGCUUCAGUGGCGCGAUAGCGCCAACGUCCUCAACCUCCAAUGCAUCCCACCACAGGAUGAUGCCUGAAGAGCCUUGGUUUAUUG | -4.76
29 | GACCAAUCUGCCCUCAGAGCUCGAGAACAUCUUCGGAUGCAGAGGAUGCAGGCUUGGGUGGCGCGAUAGCGCCAACGUCCUCAACCUCCAAUGCAUCCCACCACAUGAUGAUGCCUGUAGAACCUUGGUUUUUUG | -2.71
30 | GACCAAUCUGCCCUCAGAGCUCGAGAACAUCUUCGGAUGCAGAGGAUGCAGGCUUCGGUGGCGCGAUAGCGCCAACGUCCUCAACCUCCAAUGCAUCCCACCAAAUGAUGAUGCCUGAAGAGCCUUGGUUUUGUG | -4.19
31 | GACCAAUCUGCCCUCAGAGCUCGAGAACAUCUUCGGAUGCAGAGGAUGCAGGCUUCGGUGGCGCGAUAGCACCAACGUCCUCAACCUCCAAUGCAUCCCACCACAUGAUGACGCCUGAAGAGCCUUGGUUUUUUG | -0.298
32 | GACCAAUCUGCCCUCAGAGCUCGAGAACAUCUUCGGAUGCAGAGGAUGCAGGCUUCGGUGGUGCGAUAGCGCCAACGCCCUCAACCUCCAAUGCAUCCCACCACAUGAUGAUGCCUCAAGAGCCUUGGUUUUUUG | -5.23
33 | GACCAAUCUGCCCUCAGAGCUCGAGAACAUCUUCGGAUGCAGAGGAUGCAGGCUUCGGUGGCGCGAUAGCGCCAACGUCCUCAACCUCCAAUGCAUCCCACCACAUGAUGAUGGCUGAAGAGCCUUGGUUUUUUG | -4.11
34 | GACCAAUCUGCCCUCAGAGCUCGAGAACAUCUUCGGAUGCAGAGGAUGCAGGGUUGGGUGGCGCGAUAGCGCCAACGUCCUCAACCUCCAAUGCAUCCCACCACAUGAUGAUGCCUGAAGAGCCUUGGUUUUUUG | -2.42
35 | GACCAAUCUGCCCUCAGAGCUCGAGAACAUCUUCGGAUGCAGAGGAUGCAGGCUUCGCUGGCGCGAUAGCGCCAACGUCCUCAACCUCCAAUGCAUCCCACCACAUGAUGAUGCCUGAAGAGCCUUGGUUUUUUG | -0.433
36 | GACCAAUCUGCCCUCAGAGCUCGAGAACAUCUUCGGAUGCAGAGGAUGCAGGCUUCGGUGGCGCGAUAGCGCCAACGUCCUCAACCUCUAAUGCAUCCCACCACAUGAUGAUGCCUGAAGAACCUUGGUUUUUUG | -4.51
37 | GACCAAUCUGCCCUCAGAGCUCGAGAACAUCUUCGGAUGCAGAGGAUGCAGGCUUCGGUGGCGCGAUAGCGCCAACGUCCUCAACCUCCAAUGGAUCCCACCACAUGAUGAUGCCUGAAGAGCCUUGGUUUUUUG | -3.51
38 | GACCAAUCUGCCCUCAGAGCUCGAGAACAUCUUCGGAUGCAGAGGAUGCUGGCAUCGGUGGCGCGAUAGCGCCAACGUCCUCAACCUCCAAUGCAUCCCACCACAUGAUGAUGCCUGAAGAGCCUUGGUUUUUUG | -2.42
39 | GACCAAUCUGCCCUCAGAGCUCGAGAACAUCUUCGGAUGCAGAGGAUUCAGGCUUCGGUGGCUCGAUAGCGCCAACGUCCUCAACCUCCAAUGCAUCCCACCACAUGAUGGUGCCUGAAGAGCCUUGGUUUUUUG | -4.04
40 | GACCAAUCUGCCCUCAGAGCUCGAGAACAUCUUCGGAUGCAGAGGAUGCAGGCUUCGGUGGCGCGAUAGCGCCAACGUCCUCAACCUCCAAUGCAUCCCACCACAUGAUGAUGCUUGAAGAGCCUUGGUUUUUUG | -2.5
41 | GACCAAUCUGCCCUCAGAGCUCGAGAACAUCUUCGGAUGCAGAGGAUGCAGGCUUCGGUGGCGUGACAGCGCCAACGUCCUCAACCUCCAAUGCAUCCCACCACAUGAUGAUGCCUGAAGAGCCUUGGUUUUUUG | -7.12
42 | GACCAAUCUGCCCUCAGAGCUCGAGAACAUCUUCGGAUGCAGAGGAUGCAGGCUUCGUUGGCGCGAUAGCGCCAACGUCCUCAACCUCCAAUGCAUCCCACCACAUGAUGAUGCCUGAAUAGCCUUGGUUUUUUG | -1.02
